This series can be described thus: protein stability index of a GFP-peptide fusion (GPS, HEK-293T) (PSI 1-6); higher = more stable.
[1] abbreviates: treatment: DMSO, c terminus: a fixed tail appended.
[2] abbreviates: treatment: MLN4924 1 uM, 8 h, c terminus: a fixed tail appended.
The mark [3] stands for this setting: treatment: DMSO, c terminus: native.
The mark [4] stands for this setting: treatment: MLN4924 1 uM, 8 h, c terminus: native.

± gives the standard deviation.

This passage reports protein stability index results from the supplement of paper PMC10567573.
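Note: 24-mer peptide tiles fused after GFP, lentivirally expressed, FACS-sorted into six equal bins by GFP/DsRed ratio, decoded by Illumina sequencing, PSI is the read-weighted mean bin number.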

AAAFPTEDSRTSKESMSEADRAQK [EHMT1]: the protein stability index under setting [1] came to 5.59 ± 0.25 and the protein stability index under setting [2] turned out to be 5.514 ± 0.053.
For the sequence AADGETNGSCENSDASSHANAAKH [EHMT1], the protein stability index reads like this: under setting [1], 5.51 ± 0.12; under setting [2], 5.35 ± 0.14.
AAIGVTTSPVLPSLIQLLGRNFIL [HACD3] returned a protein stability index under setting [1] of 2.67 ± 0.19 and a protein stability index under setting [2] of 2.55 ± 0.6.
Take AAMEGATLDQTTSEEAPGGTELIQ [HDAC6]: the protein stability index reads like this: under setting [1], 5.64 ± 0.12; under setting [2], 5.47 ± 0.22.
AARPDVKCVVHIHTPAGAAVSAMK [ADD1]: the protein stability index is, setting by setting: under setting [1], 2.95 ± 0.28; under setting [2], 3.11 ± 0.28.
On to AAVVTSPPPTTAPHKERYFDRVDE [ADD1], for which the protein stability index under setting [1] amounted to 4.77 ± 0.44 and the protein stability index under setting [2] worked out at 4.73 ± 0.34.
As to ADADCFVCVFLSHGEGNHIYAYDA [CASP6], the protein stability index by setting is: under setting [1], 2.82 ± 0.66; under setting [2], 2.81 ± 0.75.
Turning to ADDESLLRTSNGQPVKTAGEITQH [DNAAF3], the protein stability index reads like this: under setting [1], 5.26 ± 0.35; under setting [2], 5.26 ± 0.2.
In the same order, the values of ADDPTSGFSSIPDAFWWAVVTMTT [KCNA3] are 2.94 ± 0.92 and 2.6 ± 0.4.
With ADGFGDNPFYHCLVAEILPAPGKL [SAT2], the protein stability index under setting [1] came to 2.27 ± 0.14 and the protein stability index under setting [2] worked out at 2.37 ± 0.42.
Taken in the same sequence, the figures for ADLSSGSSGEDDDFKSCPQGPQGR [PWWP2B] were 5.36 ± 0.15 and 5.52 ± 0.13.
As for ADPMDWSPSNVQKWLLWTEHQYRL [SPDEF], the protein stability index is 2.47 ± 0.21 under setting [1] and 2.43 ± 0.35 under setting [2].
For the sequence ADQWKSSNKSLVEALGLEAEGAVP [RHOBTB1], the protein stability index is, setting by setting: under setting [1], 5.1 ± 0.17; under setting [2], 4.83 ± 0.22.
In the case of ADRCSPKEDQAWDGASQDCPPLPA [FBXO34], the protein stability index reads like this: under setting [1], 5.27 ± 0.18; under setting [2], 4.99 ± 0.14.
In the same order, the values of ADSGADPKGEPGSKQSPPMASSPI [FBF1] are 5.44 ± 0.26 and 5.51 ± 0.15.
With ADSQITTIGNLVPQKTYSVKVLAF [PTPRD], the protein stability index is, setting by setting: under setting [1], 2.46 ± 0.56; under setting [2], 2.17 ± 0.28.
In the same order, the values of ADTKKRHTPRGHAESTSNRQPRKQ [SMOC2] are 5.34 ± 0.2 and 5.29 ± 0.15.
Take AEAEPEDQDEGEWGLDQEQVFSLG [ZBED1]: the protein stability index under setting [1] is 5.34 ± 0.44 and the protein stability index under setting [2] was found to be 5.52 ± 0.44.
Taken in the same sequence, the figures for AELQCEVAALREEQKVLSRLVESL [RASAL3] were 4.09 ± 0.23 and 3.94 ± 0.37.
Taken in the same sequence, the figures for AFPGASHESSGNPPLRVIVKDALF [RHOBTB3] were 2.96 ± 0.28 and 3.25 ± 0.41.
Taken in the same sequence, the figures for AFQLLRRFVQAEGRRATLQRLVEA [TRADD] were 2.19 ± 0.15 and 2.26 ± 0.38.
AGEGLPQVYYFGPCGKYNAMVLEL [CSNK1G1]: the protein stability index was 3.19 ± 0.65 under setting [1] and 2.65 ± 0.94 under setting [2].
Take AGNDDSFGSLPSPKELSSFSFSMK [DLC1]: the protein stability index is, setting by setting: under setting [1], 3.75 ± 0.2; under setting [2], 3.87 ± 0.21.
The sequence AGSSNLPAPERTMAGLSKEPNTLR [VENTX] displayed a protein stability index under setting [1] of 4.48 ± 0.45 and a protein stability index under setting [2] of 4.71 ± 0.47.
As to AGTSSHGCWAWPLAGLSVGRSSLT [PXN], the protein stability index worked out at 2.5 ± 0.26 under setting [1] and 2.61 ± 0.26 under setting [2].
Consider AHHPLHPHLMQEHMGTNVIVANTM [HNF4A], for which the protein stability index is, setting by setting: under setting [1], 3.2 ± 0.23; under setting [2], 3.21 ± 0.17.
In the same order, the values of AHRAILVARCEVMAAMFNGNYMEA [RHOBTB3] are 2.54 ± 0.95 and 2.08 ± 0.97.
Regarding AIEKAFQLWSNVTPLTFTKVSEGQ [MMP1], the protein stability index reads like this: under setting [1], 2.45 ± 0.49; under setting [2], 2.3 ± 0.33.
Consider AISPGRFPEALDELPLPPFLQPLD [ANKRD9], for which the protein stability index stood at 3.91 ± 0.32 under setting [1] and 3.96 ± 0.18 under setting [2].
For AKIEVEKLKAIRLRHDLPEYNSL [RAD54B], the protein stability index was 3.62 ± 0.21 under setting [3] and 3.81 ± 0.2 under setting [4].
As for AKVKPFDPKITCKQECLITTFQDV [TPH1], the protein stability index was 2.75 ± 0.52 under setting [1] and 2.42 ± 0.52 under setting [2].
ALGAPSKSPSSPQAAFTQQGMEGI [TBX5]: the protein stability index runs as follows: under setting [1], 4.59 ± 0.37; under setting [2], 4.51 ± 0.19.
Taken in the same sequence, the figures for ALKAAKREQEKKPKKEANQAPKSK [LRRC59] were 5.24 ± 0.27 and 5.28 ± 0.18.
For the sequence ALPSSAPSGPPPPPPSVLGVGPVA [WASL], the protein stability index was 4.54 ± 0.15 under setting [1] and 4.82 ± 0.25 under setting [2].
For the sequence ALQEYSSISEKLSSTNFAMKRDVQ [C8orf76], the protein stability index was 3.26 ± 0.18 under setting [1] and 3.48 ± 0.43 under setting [2].
For the sequence AMDLGFFVVMGVIGGLLGATFNCL [CLCN6], the protein stability index is, setting by setting: under setting [1], 2.68 ± 0.13; under setting [2], 3.19 ± 0.056.
In the same order, the values of AMFTGGMKEQDLMCIKLHGVSKVG [KLHL13] are 2.54 ± 0.42 and 2.58 ± 0.33.
On to ANGEVTYSFRKLPDTQLLKFQLNK [PCDHGA10], for which the protein stability index is 2.83 ± 0.33 under setting [1] and 2.85 ± 0.24 under setting [2].
For the sequence ANPFQAYLDVDLTLTREQTERLSH [RTN2], the protein stability index is, setting by setting: under setting [1], 3.65 ± 0.3; under setting [2], 3.67 ± 0.31.
As for APALPPGGTDPHGYHQVPGSAAPG [FOXJ1], the protein stability index under setting [1] worked out at 5.16 ± 0.18 and the protein stability index under setting [2] came to 5.38 ± 0.4.
Taken in the same sequence, the figures for APGEEEEEEEEATNTHPPASLPSQ [CHGA] were 5.57 ± 0.34 and 5.71 ± 0.19.
As for APPLQAETPGSAVDYPLHDLVLHT [TNXB], the protein stability index came out at 4.16 ± 0.23 under setting [1] and 4.17 ± 0.2 under setting [2].
As to AQEALREKAAALERQLKVMASDHR [LRRC45], the protein stability index under setting [1] is 4.26 ± 0.27 and the protein stability index under setting [2] came to 4.29 ± 0.23.
For the sequence AQTIPTKDRLEGLLAFKEKRPPRY [AUH], the protein stability index under setting [1] amounted to 3.73 ± 0.24 and the protein stability index under setting [2] stood at 4.06 ± 0.24.
With ARIRSHSWLESCIVGWRCRVGQWV [GMPPB], the protein stability index runs as follows: under setting [1], 2.27 ± 0.3; under setting [2], 2.262 ± 0.009.
In the same order, the values of ARKYFERLPGGGWTLRRTKELRKD [DYRK1B] are 3.66 ± 0.45 and 3.86 ± 0.44.
As for ARLKKVLIVGAPIWFRVPYSIISL [PTPN9], the protein stability index by setting is: under setting [1], 3.32 ± 0.79; under setting [2], 2.58 ± 1.
As to ASENHGCEHECVNADGSYLCQCHE [MATN2], the protein stability index was determined as 5.46 ± 0.17 under setting [1] and 5.49 ± 0.38 under setting [2].
Sequence ASQPVKKQQENATSCSLELIGDLI [WDR41] returned a protein stability index under setting [1] of 3.47 ± 0.27 and a protein stability index under setting [2] of 3.45 ± 0.38.
Sequence ASSASAFLTAPLLEFLLALYFLFA [CMTM3] came in with a protein stability index under setting [1] of 2.34 ± 0.79 and a protein stability index under setting [2] of 2.63 ± 0.88.
In the case of ASYSGKAADVWSLGVALFTMLAGH [TRIB3], the protein stability index reads like this: under setting [1], 2.99 ± 0.43; under setting [2], 2.75 ± 0.54.
Consider ATLFFHYIKTPLFNPEVAKYLKVP [IQUB], for which the protein stability index stood at 2.93 ± 0.21 under setting [1] and 2.57 ± 0.66 under setting [2].
On to ATNQCTIDKNRRKSCQACRLRKCY [ESR2], for which the protein stability index is, setting by setting: under setting [1], 3.39 ± 0.25; under setting [2], 3.47 ± 0.18.
Taken in the same sequence, the figures for ATNSSWVVVFKALVTTHHLMVHGN [SNAP91] were 3.43 ± 0.31 and 3.4 ± 0.28.
For AVATIVKPLSAIPQPTITKQEVI [HNF4A], the protein stability index runs as follows: under setting [3], 2.43 ± 0.28; under setting [4], 2.37 ± 0.19.
As for AVCMFLASKLKETSPLTAEKLCIY [CCND2], the protein stability index under setting [1] turned out to be 2.84 ± 0.61 and the protein stability index under setting [2] was 2.44 ± 0.56.
Regarding AVGGRLRLVPGGQRPADVPEPGRA [HAGHL], the protein stability index reads like this: under setting [1], 4.22 ± 0.38; under setting [2], 4.16 ± 0.43.
In the same order, the values of AVIQHRPSRQYATLDVYNPFETRE [SCAMP3] are 3.42 ± 0.23 and 3.39 ± 0.27.
Consider AVLYPRFMGTISDVKTNVQLLKGR [CD207], for which the protein stability index runs as follows: under setting [1], 2.49 ± 0.11; under setting [2], 2.56 ± 0.16.
Turning to AYLELEITLSQEQIQKYTDCLQFY [RTN1], the protein stability index under setting [1] amounted to 2.57 ± 0.4 and the protein stability index under setting [2] was 3.04 ± 0.86.
CEALEDSDGRQDSPAGELPKTVQQ [MATN2]: the protein stability index is, setting by setting: under setting [1], 5.55 ± 0.33; under setting [2], 5.56 ± 0.17.
As for CFQDFKEEKPQENKTWREQYLRLP [ELOA2], the protein stability index was 3.15 ± 0.35 under setting [1] and 3.25 ± 0.41 under setting [2].
Take CGSQLSSTKGSRSNLSTRDASILT [NETO1]: the protein stability index runs as follows: under setting [1], 2.62 ± 0.2; under setting [2], 2.65 ± 0.21.
As to CPHTPEFSVTGGTEEKSSLLMSCL [RPAIN], the protein stability index is, setting by setting: under setting [1], 3.38 ± 0.22; under setting [2], 3.49 ± 0.074.
On to CPPGGIHQVTVNESLLAPLNVELD [KRT71], for which the protein stability index came to 4.63 ± 0.29 under setting [1] and 4.54 ± 0.23 under setting [2].
For the sequence CPTLIYRETYPRTPYVRWNYVAKN [SOAT2], the protein stability index turned out to be 2.06 ± 0.23 under setting [1] and 2.36 ± 0.39 under setting [2].
Regarding CSCEWMAAMFGGSFVESANSEVYL [RHOBTB1], the protein stability index is, setting by setting: under setting [1], 2.96 ± 0.62; under setting [2], 2.85 ± 0.89.
CTLRQKLIFSPCSDCEEEEEEEEE [WEE1] registered a protein stability index under setting [1] of 5.04 ± 0.27 and a protein stability index under setting [2] of 5 ± 0.26.
For the sequence DAFWWAVVTMTTVGYGDMHPVTIG [KCNA3], the protein stability index is, setting by setting: under setting [1], 3.67 ± 0.52; under setting [2], 3.17 ± 0.31.
With DAISWYQKKIGAYDQQIWEKSIEQ [PHTF1], the protein stability index by setting is: under setting [1], 2.77 ± 0.037; under setting [2], 2.79 ± 0.34.
As to DALDKIRYESLTDPSKLDSGKELK [HSP90AB1], the protein stability index turned out to be 5.06 ± 0.1 under setting [1] and 5 ± 0.16 under setting [2].
Turning to DCPKIVEPHGKMFNEQTWEVSQQD [ZSCAN9], the protein stability index was 5.16 ± 0.089 under setting [1] and 5.18 ± 0.11 under setting [2].
